Experimental data taken from patent publication US10920254B2, “Methods and materials for producing 5 and 7-carbon monomers” (INVISTA North America S.á.r.l., priority 2015, dated 2021).

Assay: coupled assay of 5-hydroxyvalerate CoA transferase and thiolase, LC-MS detection of acyl-CoAs
Format: biochemical
Settings: 1 mM acetyl-CoA, 1 mM 5-hydroxyvalerate, pH 6.8, 30° C.; no analytical standards, ions of expected molecular weight
Procedure: For each culture, expression plasmids were freshly transformed into BL21(DE3) (Agilent). Colonies from fresh agar plates were used to inoculate 20 ml LB in 250 ml flask overnight pre-culture. For all constructs except 237, ampicillin was used, for 237 kanamycin was required. After incubation overnight at 37° C. and 200 rpm, pre-cultures were used to inoculate (1:100) larger cultures, 350 ml LB, with respective antibiotic in […]. After 2.5 h of shaking with 200 rpm at 37° C., cultures reached OD600 in the range 0.5-0.7 at which point they were induced with 1 mM IPTG and the temperature of the culture was changed to 25° C. Incubation continued overnight. Cells were harvested the next day and stored at −20° C. until protein purification was performed.
To purify an overexpressed protein, a bacterial pellet from a 350 ml culture was resuspended in up to total 20 ml of Binding Buffer (20 mM Sodium phosphate pH 7.4, 500 mM Sodium chloride, 20 mM imidazole, 5% glycerol) and sonicated for 2 min with a microtip (amplitude 50%, 1 s pulse ON, 2 s OFF). Cell suspension was centrifuged with 20,000 G for 30 min at 4° C. As all the tested proteins were His-tagged, the purification with Immobilized Metal Affinity Chromatography was sufficient to ensure both necessary purity and amount for the enzymatic assays. […]

B1: BDIGENE #246: Clostridium viride 5-hydroxyvalerate CoA transferase (protein)
chain: MAQFVTAQEAVKHIPNGSRVVLAHSTGEPRTLVKAMVENYEQYKDVEVCHMLGLGPYEYTNPEMKGHLWHNSLFMGPGGRKAFNENRLDFTPGYFCDSIKFFREGYLPVDVLMMTVSPPDKHGYVTCGITCDFTMPAFECAKMVIVQVNKNMPRTFGQTAIHLDDIDFAVEADDPLYGSVPGELTDIDRKIGEHCASLINDGACLQLGIGGIPNAVLTYLTEKNDMGIHSEMLSDGILQLIKAGNINNSKKQIHVGKSAVTFLNGSQELYDYVDDNPSVEFYPVDYINDPYVIGKNDNMVSVNSALSVDLMGQIVADNLSATRQISGAGGFVDFVRGATISKGGISIVAMPSTAAGGKASRIEMMFDAGRPITLTRFESFYVVTEYGIAKMRGNSLRTRARQLIEIAHPDFRDEMKEFYEKRFGEKY
modifications: Clostridium viride
notes: Clostridium viride 5-hydroxyvalerate CoA transferase
intermediate product 5-hydroxyvaleryl-CoA by LC-MS: detected in all samples containing both substrates and BDIGENE #246
